# ± gives the standard deviation of the averaged measurements.
# Assays:
# [1] = tested on: MCF7; experiment: percentage of EdU-negative (G0-arrested) nuclei per well, 72 h; higher = more G0 arrest; settings: reference: sequence is the full UniProt precursor, the tested protein was the secreted form or ectodomain
# [2] = tested on: hTERT-HMEC; experiment: as above; settings: reference: sequence is the full UniProt precursor, the tested protein was the secreted form or ectodomain
# [3] = protein concentration 0.0225 µM
# [4] = protein concentration 0.0128525 µM
# [5] = protein concentration 0.128525 µM
# [6] = protein concentration 0.03125 µM
# [7] = protein concentration 0.3125 µM
# 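Note: secreted proteins added to cultured cells, EdU pulse at the end, nuclei found by Hoechst imaging, EdU status from nuclear versus surrounding ring intensity ratio, PBS as neutral control.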
sequence,measurement,setting,value
MAGGRHRRVVGTLHLLLLVAALPWASRGVSPSASAWPEEKNYHQPAILNSSALRQIAEGTSISEMWQNDLQPLLIERYPGSPGSYAARQHIMQRIQRLQADWVLEIDTFLSQTPYGYRSFSNIISTLNPTAKRHLVLACHYDSKYFSHWNNRVFVGATDSAVPCAMMLELARALDKKLLSLKTVSDSKPDLSLQLIFFDGEEAFLHWSPQDSLYGSRHLAAKMASTPHPPGARGTSQLHGMDLLVLLDLIGAPNPTFPNFFPNSARWFERLQAIEHELHELGLLKDHSLEGRYFQNYSYGGVIQDDHIPFLRRGVPVLHLIPSPFPEVWHTMDDNEENLDESTIDNLNKILQVFVLEYLHL,percentage of EdU-negative,[1]; [3],25.8 ± 0.78%
same,percentage of EdU-negative,[1]; protein concentration 0.225 µM,29.91 ± 0.092%
same,percentage of EdU-negative,[2]; [3],5.21 ± 0.26%
same,percentage of EdU-negative,[2]; protein concentration 0.225 µM,4.97 ± 1.1%
MAPRRVRSFLRGLPALLLLLLFLGPWPAASHGGKYSREKNQPKPSPKRESGEEFRMEKLNQLWEKAQRLHLPPVRLAELHADLKIQERDELAWKKLKLDGLDEDGEKEARLIRNLNVILAKYGLDGKKDARQVTSNSLSGTQEDGLDDPRLEKLWHKAKTSGKFSGEELDKLWREFLHHKEKVHEYNVLLETLSRTEEIHENVISPSDLSDIKGSVLHSRHTELKEKLRSINQGLDRLRRVSHQGYSTEAEFEEPRVIDLWDLAQSANLTDKELEAFREELKHFEAKIEKHNHYQKQLEIAHEKLRHAESVGDGERVSRSREKHALLEGRTKELGYTVKKHLQDLSGRISRARHNEL,percentage of EdU-negative,[1]; [4],24.3 ± 0.53%
same,percentage of EdU-negative,[1]; [5],26.4 ± 1.4%
same,percentage of EdU-negative,[2]; [4],4.97 ± 0.51%
same,percentage of EdU-negative,[2]; [5],6.45 ± 0.82%
MGPPSASPHRECIPWQGLLLTASLLNFWNPPTTAKLTIESMPLSVAEGKEVLLLVHNLPQHLFGYSWYKGERVDGNSLIVGYVIGTQQATPGAAYSGRETIYTNASLLIQNVTQNDIGFYTLQVIKSDLVNEEATGQFHVYQENAPGLPVGAVAGIVTGVLVGVALVAALVCFLLLAKTGRTSIQRDLKEQQPQALAPGRGPSHSSAFSMSPLSTAQAPLPNPRTAASIYEELLKHDTNIYCRMDHKAEVAS,percentage of EdU-negative,[1]; [3],25 ± 3.7%
same,percentage of EdU-negative,[1]; protein concentration 0.225 µM,25.4 ± 1.4%
same,percentage of EdU-negative,[2]; [3],5.43 ± 0.36%
same,percentage of EdU-negative,[2]; protein concentration 0.225 µM,5.03 ± 0.028%
MDPQCTMGLSNILFVMAFLLSGAAPLKIQAYFNETADLPCQFANSQNQSLSELVVFWQDQENLVLNEVYLGKEKFDSVHSKYMGRTSFDSDSWTLRLHNLQIKDKGLYQCIIHHKKPTGMIRIHQMNSELSVLANFSQPEIVPISNITENVYINLTCSSIHGYPEPKKMSVLLRTKNSTIEYDGVMQKSQDNVTELYDVSISLSVSFPDVTSNMTIFCILETDKTRLLSSPFSIELEDPQPPPDHIPWITAVLPTVIICVMVFCLILWKWKKKKRPRNSYKCGTNTMEREESEQTKKREKIHIPERSDEAQRVFKSSKTSSCDKSDTCF,percentage of EdU-negative,[1]; [3],24 ± 1.6%
same,percentage of EdU-negative,[1]; protein concentration 0.225 µM,25.9 ± 0.81%
same,percentage of EdU-negative,[2]; [3],4.6 ± 0.096%
same,percentage of EdU-negative,[2]; protein concentration 0.225 µM,6.71 ± 0.18%
MEESVVRPSVFVVDGQTDIPFTRLGRSHRRQSCSVARVGLGLLLLLMGAGLAVQGWFLLQLHWRLGEMVTRLPDGPAGSWEQLIQERRSHEVNPAAHLTGANSSLTGSGGPLLWETQLGLAFLRGLSYHDGALVVTKAGYYYIYSKVQLGGVGCPLGLASTITHGLYKRTPRYPEELELLVSQQSPCGRATSSSRVWWDSSFLGGVVHLEAGEKVVVRVLDERLVRLRDGTRSYFGAFMV,percentage of EdU-negative,[1]; protein concentration 0.012 µM,23.7 ± 1.9%
same,percentage of EdU-negative,[1]; protein concentration 0.12 µM,25.5 ± 0.62%
same,percentage of EdU-negative,[2]; protein concentration 0.012 µM,6.38 ± 0.16%
same,percentage of EdU-negative,[2]; protein concentration 0.12 µM,15.2 ± 1.9%
MSALGAVIALLLWGQLFAVDSGNDVTDIADDGCPKPPEIAHGYVEHSVRYQCKNYYKLRTEGDGVYTLNDKKQWINKAVGDKLPECEADDGCPKPPEIAHGYVEHSVRYQCKNYYKLRTEGDGVYTLNNEKQWINKAVGDKLPECEAVCGKPKNPANPVQRILGGHLDAKGSFPWQAKMVSHHNLTTGATLINEQWLLTTAKNLFLNHSENATAKDIAPTLTLYVGKKQLVEIEKVVLHPNYSQVDIGLIKLKQKVSVNERVMPICLPSKDYAEVGRVGYVSGWGRNANFKFTDHLKYVMLPVADQDQCIRHYEGSTVPEKKTPKSPVGVQPILNEHTFCAGMSKYQEDTCYGDAGSAFAVHDLEEDTWYATGILSFDKSCAVAEYGVYVKVTSIQDWVQKTIAEN,percentage of EdU-negative,[1]; [6],23.8 ± 3%
same,percentage of EdU-negative,[1]; [7],23.1 ± 0.73%
same,percentage of EdU-negative,[2]; [6],4.46 ± 0.32%
same,percentage of EdU-negative,[2]; [7],5.96 ± 1.1%
MGLLLPLALCILVLCCGAMSPPQLALNPSALLSRGCNDSDVLAVAGFALRDINKDRKDGYVLRLNRVNDAQEYRRGGLGSLFYLTLDVLETDCHVLRKKAWQDCGMRIFFESVYGQCKAIFYMNNPSRVLYLAAYNCTLRPVSKKKIYMTCPDCPSSIPTDSSNHQVLEAATESLAKYNNENTSKQYSLFKVTRASSQWVVGPSYFVEYLIKESPCTKSQASSCSLQSSDSVPVGLCKGSLTRTHWEKFVSVTCDFFESQAPATGSENSAVNQKPTNLPKVEESQQKNTPPTDSPSKAGPRGSVQYLPDLDDKNSQEKGPQEAFPVHLDLTTNPQGETLDISFLFLEPMEEKLVVLPFPKEKARTAECPGPAQNASPLVLPP [Q9UGM5],percentage of EdU-negative,[1]; [6],26.5 ± 2.8%
same,percentage of EdU-negative,[1]; [7],27.9 ± 0.97%
same,percentage of EdU-negative,[2]; [6],5.24 ± 0.29%
same,percentage of EdU-negative,[2]; [7],7.43 ± 0.49%

# Source: the supplement of paper PMC11316812
